In patent US20030232325A1 (MOUNT SINAI SCHOOL OF MEDICINE OF NEW YORK UNIVERSITY, published 2003):

B1: LexA-bicoid fusion protein (encoded by pRFHM1) (other)
chain: AQPPPDQNFYHHPLPHTHTHPHPHSHPHPHSHPHPHHQHPQLQLPPQFRNPFDLLFDERTGAINYNYIRPYLPNQMPKPEELPDSLVMRRPRRTRTTFTSSQIAELEQHFLQGRYLTAPRLADLSAKLALGTAQVKIWFKNRRRRHKIQSDQHKDQSYE
notes: also called LexA fused to a transcriptionally inert fragment of the Drosophila melanogaster bicoid protein

What was measured:
[1] = biological target: T1, rabies virus M protein (form used not stated; discussion of Example 9, data not shown) (rabies virus, UniProt P16287 1-202); experiment: far-western blot presumably; data not shown
T1 sequence: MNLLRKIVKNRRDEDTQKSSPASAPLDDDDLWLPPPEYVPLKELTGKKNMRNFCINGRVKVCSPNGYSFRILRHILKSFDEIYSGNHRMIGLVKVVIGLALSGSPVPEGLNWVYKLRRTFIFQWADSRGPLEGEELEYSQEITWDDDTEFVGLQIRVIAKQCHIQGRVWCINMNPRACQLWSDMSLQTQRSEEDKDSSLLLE

[2] = biological target: T2, NS1-BP fragment (amino acids 347 to 619) expressed from the HeLa cDNA library plasmid p59-1 (activation … (human, UniProt Q9Y6Y0 347-611)); experiment: yeast interaction trap, lacZ reporter
T2 sequence: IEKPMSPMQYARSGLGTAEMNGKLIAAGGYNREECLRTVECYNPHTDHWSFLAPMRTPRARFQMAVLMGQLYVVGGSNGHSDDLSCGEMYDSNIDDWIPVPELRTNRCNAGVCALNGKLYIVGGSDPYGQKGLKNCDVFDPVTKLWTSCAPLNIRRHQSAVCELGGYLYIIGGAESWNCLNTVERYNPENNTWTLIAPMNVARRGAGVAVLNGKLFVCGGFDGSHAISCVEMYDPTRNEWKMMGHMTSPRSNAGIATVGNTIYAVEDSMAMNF

[3] = biological target: T3, NS1I-1 fragment expressed from the HeLa cDNA library plasmid pK5 (activation domain fusion) (human, UniProt P51659 266-736); experiment: yeast interaction trap, lacZ reporter; pRFHM1 as control bait
T3 sequence: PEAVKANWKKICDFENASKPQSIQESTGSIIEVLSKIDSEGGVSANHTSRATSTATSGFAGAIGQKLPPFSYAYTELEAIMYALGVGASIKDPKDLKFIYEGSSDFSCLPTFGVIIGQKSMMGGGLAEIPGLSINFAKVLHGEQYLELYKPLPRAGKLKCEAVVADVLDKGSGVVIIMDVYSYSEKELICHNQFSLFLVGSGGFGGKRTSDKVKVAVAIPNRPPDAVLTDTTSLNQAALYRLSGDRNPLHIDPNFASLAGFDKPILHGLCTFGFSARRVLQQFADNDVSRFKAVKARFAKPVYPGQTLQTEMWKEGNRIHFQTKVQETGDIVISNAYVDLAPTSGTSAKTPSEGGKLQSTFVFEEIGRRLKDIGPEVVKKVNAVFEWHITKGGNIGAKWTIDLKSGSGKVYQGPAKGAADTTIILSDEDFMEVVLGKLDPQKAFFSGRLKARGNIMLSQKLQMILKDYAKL

Binder | binding result [1] | binding result [2] | binding result [3]
TGLPTPWTVRYSKSKKREYFFNPETKHSQWEEPEG (other, domain: WW) [WW domain from ESS 1] | no binding | – | –
B1 | – | no binding | no binding
